From article PMC8786824 (Scientific Reports, 2022)

Target: MERS-CoV RBD (amino acids 367 to 588) of the spike glycoprotein (MERS-CoV, UniProt K9N5Q8)
Assay: crystal structure
Conditions: both partners purified

Sequence of MERS-CoV RBD (amino acids 367 to 588) of the spike glycoprotein (K9N5Q8 367-588): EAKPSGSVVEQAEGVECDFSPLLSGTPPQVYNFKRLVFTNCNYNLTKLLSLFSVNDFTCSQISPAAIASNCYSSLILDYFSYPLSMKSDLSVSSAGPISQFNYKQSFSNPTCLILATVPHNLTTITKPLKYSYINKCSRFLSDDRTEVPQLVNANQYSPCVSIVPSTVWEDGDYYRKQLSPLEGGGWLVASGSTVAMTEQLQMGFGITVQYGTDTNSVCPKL

B1: KNIH90-F1 antigen-binding fragment (Fab) (Fab, V domains shown)
VH: QVQLVQSGAEVKRPGSSVKVSCKTSGGTFNNNAINWVRQAPGQGLEWMGGIIPFFGIAKYAQKFQGRVTITADESTSTAYMELSSLRSEDTAVYYCARDLPRESSYGSGSYYTHYYAMDVWGQGTTVTVSS
VL: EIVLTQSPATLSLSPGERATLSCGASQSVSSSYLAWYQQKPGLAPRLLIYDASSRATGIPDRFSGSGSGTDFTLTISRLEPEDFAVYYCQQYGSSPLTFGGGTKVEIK
notes: also called KNIH90-F1 Fab; nAb KNIH90-F1
binding result: binds
